B1: Golgi SNAP receptor complex member 2 (Homo sapiens), O14653 (parent)
chain: MDPLFQQTHKQVHEIQSCMGRLETADKQSVHIVENEIQASIDQIFSRLERLEILSSKEPPNKRQNARLRVDQLKYDVQHLQTALRNFQHRRHAREQQERQREELLSRTFTTNDSDTTIPMDESLQFNSSLQKVHNGMDDLILDGHNILDGLRTQRLTLKGTQKKILDIANMLGLSNTVMRLIEKRAFQDKYFMIGGMLLTCVVMFLVVQYLT
partner: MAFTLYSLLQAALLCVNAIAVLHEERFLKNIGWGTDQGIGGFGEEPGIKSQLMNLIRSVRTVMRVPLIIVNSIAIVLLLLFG
B2: Catenin alpha-3 (Homo sapiens), Q9UI47-2 (parent)
chain: MSAETPITLNIDPQDLQVQTFTVEKLLEPLIIQVTTLVNCPQNPSSRKKGRSKRASVLLASVEEATWNLLDKGEKIAQEATVLKDELTASLEEVRKESEALKVSAERFTDDPCFLPKREAVVQAARALLAAVTRLLILADMIDVMCLLQHVSAFQRTFESLKNVANKSDLQKTYQKLGKELENLDYLAFKRQQDLKSPNQRDEIAGARASLKENSPLLHSICSACLEHSDVASLKASKDTVCEEIQNALNVISNASQGIQNMTTPPEPQAATLGSALDELENLIVLNPLTVTEEEIRPSLEKRLEAIISGAALLADSSCTRDLHRERIIAECNAIRQALQDLLSEYMNNAGKKERSNTLNIALDNMCKKTRDLRRQLRKAIIDHVSDSFLDTTVPLLVLIEAAKNGREKEIKEYAAIFHEHTSRLVEVANLACSMSTNEDGIKIVKIAANHLETLCPQIINAALALAARPKSQAVKNTMEMYKRTWENHIHVLTEAVDDITSIDDFLAVSGMFLFF
partner: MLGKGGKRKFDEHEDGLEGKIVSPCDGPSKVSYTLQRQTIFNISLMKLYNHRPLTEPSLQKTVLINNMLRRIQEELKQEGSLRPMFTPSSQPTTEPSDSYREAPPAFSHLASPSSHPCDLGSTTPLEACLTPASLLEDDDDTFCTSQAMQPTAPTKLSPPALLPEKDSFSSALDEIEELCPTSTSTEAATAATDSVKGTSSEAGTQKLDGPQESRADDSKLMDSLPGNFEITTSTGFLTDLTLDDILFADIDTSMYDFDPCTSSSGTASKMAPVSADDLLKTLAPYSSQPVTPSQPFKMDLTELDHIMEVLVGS
B3: Very-long-chain enoyl-CoA reductase (Homo sapiens), Q9NZ01 (parent)
chain: MKHYEVEILDAKTREKLCFLDKVEPHATIAEIKNLFTKTHPQWYPARQSLRLDPKGKSLKDEDVLQKLPVGTTATLYFRDLGAQISWVTVFLTEYAGPLFIYLLFYFRVPFIYGHKYDFTSSRHTVVHLACICHSFHYIKRLLETLFVHRFSHGTMPLRNIFKNCTYYWGFAAWMAYYINHPLYTPPTYGAQQVKLALAIFVICQLGNFSIHMALRDLRPAGSKTRKIPYPTKNPFTWLFLLVSCPNYTYEVGSWIGFAIMTQCLPVALFSLVGFTQMTIWAKGKHRSYLKEFRDYPPLRMPIIPFLL
partner: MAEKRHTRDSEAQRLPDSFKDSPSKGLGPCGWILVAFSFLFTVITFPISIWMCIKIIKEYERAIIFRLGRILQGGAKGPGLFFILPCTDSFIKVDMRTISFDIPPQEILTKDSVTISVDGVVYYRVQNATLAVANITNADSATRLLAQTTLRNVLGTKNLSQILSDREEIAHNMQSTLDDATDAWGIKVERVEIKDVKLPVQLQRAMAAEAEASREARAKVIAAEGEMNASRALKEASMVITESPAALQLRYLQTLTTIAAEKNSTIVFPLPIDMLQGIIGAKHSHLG
B4: Catenin alpha-3 (Homo sapiens), Q9UI47-2 (parent)
chain: B2 chain
partner: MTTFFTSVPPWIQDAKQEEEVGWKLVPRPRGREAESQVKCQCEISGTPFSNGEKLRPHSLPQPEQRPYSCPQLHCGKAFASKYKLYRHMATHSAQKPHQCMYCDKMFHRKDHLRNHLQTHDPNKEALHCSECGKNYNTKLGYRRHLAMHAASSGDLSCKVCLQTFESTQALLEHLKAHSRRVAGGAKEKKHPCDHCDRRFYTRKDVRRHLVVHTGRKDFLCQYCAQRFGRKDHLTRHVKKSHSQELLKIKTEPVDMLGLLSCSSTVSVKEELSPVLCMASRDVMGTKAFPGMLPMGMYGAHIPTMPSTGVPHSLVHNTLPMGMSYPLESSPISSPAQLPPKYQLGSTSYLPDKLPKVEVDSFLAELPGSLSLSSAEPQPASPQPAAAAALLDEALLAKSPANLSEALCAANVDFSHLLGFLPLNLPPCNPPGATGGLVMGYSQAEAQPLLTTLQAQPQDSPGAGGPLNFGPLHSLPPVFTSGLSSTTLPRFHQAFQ
B5: Succinate--CoA ligase [ADP-forming] subunit beta, mitochondrial (Homo sapiens), Q9P2R7 (parent)
chain: MAASMFYGRLVAVATLRNHRPRTAQRAAAQVLGSSGLFNNHGLQVQQQQQRNLSLHEYMSMELLQEAGVSVPKGYVAKSPDEAYAIAKKLGSKDVVIKAQVLAGGRGKGTFESGLKGGVKIVFSPEEAKAVSSQMIGKKLFTKQTGEKGRICNQVLVCERKYPRREYYFAITMERSFQGPVLIGSSHGGVNIEDVAAESPEAIIKEPIDIEEGIKKEQALQLAQKMGFPPNIVESAAENMVKLYSLFLKYDATMIEINPMVEDSDGAVLCMDAKINFDSNSAYRQKKIFDLQDWTQEDERDKDAAKANLNYIGLDGNIGCLVNGAGLAMATMDIIKLHGGTPANFLDVGGGATVHQVTEAFKLITSDKKVLAILVNIFGGIMRCDVIAQGIVMAVKDLEIKIPVVVRLQGTRVDDAKALIADSGLKILACDDLDEAARMVVKLSEIVTLAKQAHVDVKFQLPI
partner: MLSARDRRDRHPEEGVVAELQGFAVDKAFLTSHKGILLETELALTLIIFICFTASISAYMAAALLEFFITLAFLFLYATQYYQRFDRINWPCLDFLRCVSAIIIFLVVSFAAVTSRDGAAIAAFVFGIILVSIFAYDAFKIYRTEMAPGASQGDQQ
B6: Golgi SNAP receptor complex member 2 (Homo sapiens), O14653 (parent)
chain: B1 chain
partner: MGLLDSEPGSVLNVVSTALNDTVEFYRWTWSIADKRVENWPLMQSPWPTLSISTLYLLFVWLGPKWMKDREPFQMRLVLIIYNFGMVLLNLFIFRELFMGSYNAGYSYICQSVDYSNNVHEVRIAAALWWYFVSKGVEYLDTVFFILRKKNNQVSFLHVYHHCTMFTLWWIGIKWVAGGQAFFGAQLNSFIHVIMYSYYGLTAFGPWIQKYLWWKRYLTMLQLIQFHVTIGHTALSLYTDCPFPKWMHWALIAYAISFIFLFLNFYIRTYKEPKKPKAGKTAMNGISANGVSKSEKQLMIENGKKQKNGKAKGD
B7: Golgi SNAP receptor complex member 2 (Homo sapiens), O14653 (parent)
chain: B1 chain
partner: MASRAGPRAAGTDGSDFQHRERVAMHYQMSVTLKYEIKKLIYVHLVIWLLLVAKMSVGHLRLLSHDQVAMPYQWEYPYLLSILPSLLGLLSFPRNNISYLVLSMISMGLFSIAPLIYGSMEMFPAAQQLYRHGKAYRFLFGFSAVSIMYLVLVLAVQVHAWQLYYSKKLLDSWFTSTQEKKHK
B8: Ceroid-lipofuscinosis neuronal protein 6 (Homo sapiens), Q9NWW5 (parent)
chain: MEATRRRQHLGATGGPGAQLGASFLQARHGSVSADEAARTAPFHLDLWFYFTLQNWVLDFGRPIAMLVFPLEWFPLNKPSVGDYFHMAYNVITPFLLLKLIERSPRTLPRSITYVSIIIFIMGASIHLVGDSVNHRLLFSGYQHHLSVRENPIIKNLKPETLIDSFELLYYYDEYLGHCMWYIPFFLILFMYFSGCFTASKAESLIPGPALLLVAPSGLYYWYLVTEGQIFILFIFTFFAMLALVLHQKRKRLFLDSNGLFLFSSFALTLLLVALWVAWLWNDPVLRKKYPGVIYVPEPWAFYTLHVSSRH
partner: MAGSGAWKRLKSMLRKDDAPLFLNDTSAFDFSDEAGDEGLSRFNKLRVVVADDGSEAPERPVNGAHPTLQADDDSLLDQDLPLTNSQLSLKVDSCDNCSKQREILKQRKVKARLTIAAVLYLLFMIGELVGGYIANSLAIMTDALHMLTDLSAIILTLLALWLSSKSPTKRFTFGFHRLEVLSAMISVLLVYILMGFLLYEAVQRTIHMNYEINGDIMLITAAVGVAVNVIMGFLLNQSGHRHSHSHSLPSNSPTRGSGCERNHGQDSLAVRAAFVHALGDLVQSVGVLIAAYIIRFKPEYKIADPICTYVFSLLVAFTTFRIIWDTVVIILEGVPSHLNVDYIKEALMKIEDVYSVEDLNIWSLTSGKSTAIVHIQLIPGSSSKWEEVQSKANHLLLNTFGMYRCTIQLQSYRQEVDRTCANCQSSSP
B9: Catenin alpha-3 (Homo sapiens), Q9UI47-2 (parent)
chain: B2 chain
partner: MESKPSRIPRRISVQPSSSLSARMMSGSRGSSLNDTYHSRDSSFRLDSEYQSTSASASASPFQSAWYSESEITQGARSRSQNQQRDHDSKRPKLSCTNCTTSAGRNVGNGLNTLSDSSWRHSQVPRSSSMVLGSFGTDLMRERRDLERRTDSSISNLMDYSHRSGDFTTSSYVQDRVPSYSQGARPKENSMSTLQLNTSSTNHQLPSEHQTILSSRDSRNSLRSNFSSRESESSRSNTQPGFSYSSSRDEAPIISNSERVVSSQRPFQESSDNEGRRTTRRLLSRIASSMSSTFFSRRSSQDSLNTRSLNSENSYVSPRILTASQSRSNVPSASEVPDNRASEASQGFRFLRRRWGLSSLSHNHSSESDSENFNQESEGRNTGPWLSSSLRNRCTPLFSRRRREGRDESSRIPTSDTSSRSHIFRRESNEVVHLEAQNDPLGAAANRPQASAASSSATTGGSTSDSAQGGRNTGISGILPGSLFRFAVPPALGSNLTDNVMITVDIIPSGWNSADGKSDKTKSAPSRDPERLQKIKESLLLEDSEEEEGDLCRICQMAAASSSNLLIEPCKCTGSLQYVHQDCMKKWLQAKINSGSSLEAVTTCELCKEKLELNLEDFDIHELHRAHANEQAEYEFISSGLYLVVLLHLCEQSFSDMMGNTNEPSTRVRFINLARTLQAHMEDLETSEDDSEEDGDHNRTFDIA
B10: Ceroid-lipofuscinosis neuronal protein 6 (Homo sapiens), Q9NWW5 (parent)
chain: B8 chain
partner: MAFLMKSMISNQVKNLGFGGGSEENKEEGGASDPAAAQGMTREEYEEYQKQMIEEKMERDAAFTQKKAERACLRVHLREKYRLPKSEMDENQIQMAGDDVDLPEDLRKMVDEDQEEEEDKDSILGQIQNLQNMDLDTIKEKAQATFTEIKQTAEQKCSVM

Variants of B1 are the subject of one test. The settings on record: with ir3ip_human IER3IP1, Q9Y5U9.
With G144W, the “effect of a mutation on the interaction” value is given as “with no effect”.

A further test covers variants of B2. The settings on record: with srtd2_human SERTAD2, Q14140.
For the variant V94D, the “effect of a mutation on the interaction” value is reported as “disrupting interaction strength”.

In another test the parent is B3. The settings on record: with stom_human STOM.
On to P182L, for which the “effect of a mutation on the interaction” value is “disrupting interaction strength”.

In another test the parent is B4. The note with it: with plal2_human PLAGL2, Q9UPG8.
On to V94D, for which the “effect of a mutation on the interaction” value is given as “disrupting interaction strength”.

Variants of B5 are the subject of the next test. The note with it: with CMTM5, Q96DZ9-2.
Regarding D251N, the “effect of a mutation on the interaction” value was “disrupting interaction strength”.

As to G118R, the “effect of a mutation on the interaction” value was “disrupting interaction strength”.

The variants in another test derive from B6. The note with it: with elov4_human ELOVL4, Q9GZR5.
With G144W, the “effect of a mutation on the interaction” value is given as “with no effect”.

Another test covers variants of B7. The note with it: with jagn1_human JAGN1, Q8N5M9.
Regarding G144W, the “effect of a mutation on the interaction” value is on record as “with no effect”.

Another test covers variants of B8. The settings on record: with znt4_human SLC30A4, O14863.
As for L47F, the “effect of a mutation on the interaction” value is on record as “disrupting interaction strength”.

For the variant G123D, the “effect of a mutation on the interaction” value was “disrupting interaction strength”.

Turning to R6T, the “effect of a mutation on the interaction” value is listed as “with no effect”.

Variants of B9 are the subject of a further test. The settings on record: with marh7_human MARCHF7, Q9H992.
As to V94D, the “effect of a mutation on the interaction” value is “with no effect”.

Variants of B10 are the subject of the next test. The settings on record: with cplx4_human CPLX4, Q7Z7G2.
For the variant G123D, the “effect of a mutation on the interaction” value is given as “with no effect”.

(Values after IntAct's records for PubMed 32296183.)
